Positions count from the first letter of the chain named. Names may count otherwise. “And” between values parts separate entries of the source, which are not always exact repeats. Identical values can stand only once.
B1: Drp1ΔVD (Δ514–602) (natural protein, human, UniProt O00429-4 1-699, looked up)
chain: MEALIPVINKLQDVFNTVGADIIQLPQIVVVGTQSSGKSSVLESLVGRDLLPRGTGIVTRRPLILQLVHVSQEDKRKTTGEENGVEAEEWGKFLHTKNKLYTDFDEIRQEIENETERISGNNKGVSPEPIHLKIFSPNVVNLTLVDLPGMTKVPVGDQPKDIELQIRELILRFISNPNSIILAVTAANTDMATSEALKISREVDPDGRRTLAVITKLDLMDAGTDAMDVLMGRVIPVKLGIIGVVNRSQLDINNKKSVTDSIRDEYAFLQKKYPSLANRNGTKYLARTLNRLLMHHIRDCLPELKTRINVLAAQYQSLLNSYGEPVDDKSATLLQLITKFATEYCNTIEGTAKYIETSELCGGARICYIFHETFGRTLESVDPLGGLNTIDILTAIRNATGPRPALFVPEVSFELLVKRQIKRLEEPSLRCVELVHEEMQRIIQHCSNYSTQELLRFPKLHDAIVEVVTCLLRKRLPVTNEMVHNLVAIELAYINTKHPDFADACGLMNNNIEEQRDCEVIERLIKSYFLIVRKNIQDSVPKAVMHFLVNHVKDTLQSELVGQLYKSSLLDDLLTESEDMAQRRKEAADMLKALQGASQIIAEIRETHLW
notes: dynamin-related protein 1 (Drp1), human, with the variable domain deleted (Δ514–602); ~70 kDa monomer; source: E. coli BL21 Star (DE3), purified
B2: Drp1 R247A (full-length) (natural protein, human, UniProt O00429-4 1-699, looked up)
chain: MEALIPVINKLQDVFNTVGADIIQLPQIVVVGTQSSGKSSVLESLVGRDLLPRGTGIVTRRPLILQLVHVSQEDKRKTTGEENGVEAEEWGKFLHTKNKLYTDFDEIRQEIENETERISGNNKGVSPEPIHLKIFSPNVVNLTLVDLPGMTKVPVGDQPKDIELQIRELILRFISNPNSIILAVTAANTDMATSEALKISREVDPDGRRTLAVITKLDLMDAGTDAMDVLMGRVIPVKLGIIGVVNASQLDINNKKSVTDSIRDEYAFLQKKYPSLANRNGTKYLARTLNRLLMHHIRDCLPELKTRINVLAAQYQSLLNSYGEPVDDKSATLLQLITKFATEYCNTIEGTAKYIETSELCGGARICYIFHETFGRTLESVDPLGGLNTIDILTAIRNATGPRPALFVPEVSFELLVKRQIKRLEEPSLRCVELVHEEMQRIIQHCSNYSTQELLRFPKLHDAIVEVVTCLLRKRLPVTNEMVHNLVAIELAYINTKHPDFADACGLMNNNIEEQRRNRLARELPSAVSRDKVASGGGGVGDGVQEPTTGNWRGMLKTSKAEELLAEEKSKPIPIMPASPQKGHAVNLLDVPVPVARKLSAREQRDCEVIERLIKSYFLIVRKNIQDSVPKAVMHFLVNHVKDTLQSELVGQLYKSSLLDDLLTESEDMAQRRKEAADMLKALQGASQIIAEIRETHLW
notes: dynamin-related protein 1 (Drp1), human, full length, with R247A in the GTPase domain; source: E. coli BL21 Star (DE3), purified
B3: full-length Drp1 WT (Drp1 short; human isoform 3; 699 a.a.) (natural protein, UniProt O00429-4 1-699, looked up)
chain: B2 chain with A247R
notes: dynamin-related protein 1 (Drp1), human, short isoform; human isoform 3; 699 a.a; also called Drp1-short-80-loop; dynamin-related protein 1; source: E. coli BL21 Star (DE3), purified
B4: Drp1 G350D (full-length stalk L1N mutant) (natural protein, human, UniProt O00429-4 1-699, looked up)
chain: B2 chain with A247R, G350D
notes: dynamin-related protein 1 (Drp1), human, short isoform (isoform 3, 699 a.a.) with G350D; source: E. coli BL21 Star (DE3), purified

Key:
[1] = target: the molecule itself; assay: SEC-MALS; included (soluble) fraction of Drp1ΔVD loaded at 6 μM onto Superose 6 10/300 GL
[2] = target: full-length Mff (mitochondrial fission factor), reconstituted in CL-free nanotubes or liposomes; assay: cell-based or functional assay
[3] = target: the molecule itself; assay: SEC-MALS; full-length Drp1 WT and mutants, nucleotide-free, each loaded at 10 μM in 500 μl onto Superose 6 10/300 GL in Buffer A (20 mM HEPES pH 7.5, 150 mM KCl) with 1 mM DTT

Binder | stoichiometry N [1] | Mff-stimulated GTPase activity on NT compared to Drp1 WT [2] | stoichiometry N [3]
B1 | 4 |  | 
B2 |  | 3 fold | 2 and 4
B3 |  |  | 4 and 2
B4 |  |  | 2
